Substitutions are numbered along the chain they refer to. Names and notes keep the numbering of the source.

The source of these data is publication PMC7765622, “The Cardioprotective PKA-Mediated Hsp20 Phosphorylation Modulates Protein Associations Regulating Cytoskeletal Dynamics” (International Journal of Molecular Sciences, 2020).

T1: GST-CFL2 (amino acids 1-55) (Homo sapiens (Human), UniProt Q9Y281)
T1 chain: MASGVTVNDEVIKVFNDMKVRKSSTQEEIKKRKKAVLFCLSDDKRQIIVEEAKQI

T2: GST-CFL2 (amino acids 1-166), non-phosphorylated (Homo sapiens (Human), UniProt Q9Y281)
T2 chain: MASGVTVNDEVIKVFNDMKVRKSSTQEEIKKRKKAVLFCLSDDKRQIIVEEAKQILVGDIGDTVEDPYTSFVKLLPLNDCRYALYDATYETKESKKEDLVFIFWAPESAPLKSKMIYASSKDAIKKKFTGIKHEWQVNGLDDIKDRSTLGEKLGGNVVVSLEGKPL

T3: MBP-14-3-3 (amino acids 1-247), full length 14-3-3 gamma (human, UniProt P61981 1-247)
T3 construct: 14-3-3 gamma, human, amino acids 1-247, cloned by RT-PCR on human muscle cDNA into pMALc2x; also called in vitro expressed 14-3-3; source: recombinant, expression as previously described [58]
T3 sequence (looked up): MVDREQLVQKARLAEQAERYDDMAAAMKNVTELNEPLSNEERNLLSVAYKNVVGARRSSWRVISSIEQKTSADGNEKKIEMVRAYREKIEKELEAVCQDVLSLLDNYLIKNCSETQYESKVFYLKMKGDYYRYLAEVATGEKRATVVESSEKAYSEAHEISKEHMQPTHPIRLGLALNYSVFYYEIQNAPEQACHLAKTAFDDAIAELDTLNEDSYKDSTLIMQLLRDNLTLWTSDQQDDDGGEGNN

B1: MBP-14-3-3 (amino acids 115-247) (domain or fragment, human, UniProt P61981 115-247, looked up)
chain: TQYESKVFYLKMKGDYYRYLAEVATGEKRATVVESSEKAYSEAHEISKEHMQPTHPIRLGLALNYSVFYYEIQNAPEQACHLAKTAFDDAIAELDTLNEDSYKDSTLIMQLLRDNLTLWTSDQQDDDGGEGNN
notes: 14-3-3 gamma, human, amino acids 115-247, in pMALc2x; also called MBP-14-3-3 C-terminal deletion construct; C-terminal fragment of 14-3-3; source: recombinant, expression as previously described [58]
B2: MBP-14-3-3 (amino acids 1-247), full length 14-3-3 gamma (protein)
chain: T3 sequence (looked up)
B3: GST-Hsp20 (amino acids 1-160), wild type, phosphorylated in vitro by PKA at Ser16 (natural protein, human, UniProt O14558 1-160, looked up)
chain: MEIPVPVQPSWLRRASAPLPGLSAPGRLFDQRFGEGLLEAELAALCPTTLAPYYLRAPSVALPVAQVPTDPGHFSVLLDVKHFSPEEIAVKVVGEHVEVHARHEERPDEHGFVAREFHRRYRLPPGVDPAAVTSALSPEGVLSIQAAPASAQAPPPAAAK
modifications: phosphoserine at 16 (PKA in vitro)
notes: Hsp20 (HspB6), amino acids 1-160, wild type; construct previously reported [16,53,57]; Same construct as m7, after PKA treatment; also called phosphorylated GST-Hsp20; GST-p-Hsp20; source: recombinant, purified on Glutathione Sepharose 4B; phosphorylated in vitro with PKA catalytic subunit (New England Biolabs), 30 °C, 1 h
B4: GST-Hsp20-S16D (natural protein, human, UniProt O14558 1-160, looked up)
chain: B3 chain with S16D
notes: Hsp20 (HspB6), amino acids 1-160, made by PCR mutagenesis on the WT Hsp20 GST-tagged plasmid; Phosphomimetic at Ser16; also called GST-p-Hsp20-S16D (after PKA treatment); source: recombinant, purified (Glutathione Sepharose 4B), eluted; used untreated or PKA-treated
B5: MBP-14-3-3 (amino acids 1-120) (protein)
chain: MVDREQLVQKARLAEQAERYDDMAAAMKNVTELNEPLSNEERNLLSVAYKNVVGARRSSWRVISSIEQKTSADGNEKKIEMVRAYREKIEKELEAVCQDVLSLLDNYLIKNCSETQYESK

Experiment [1] addresses B3. Put plainly: far-Western, overlay or dot blot; purified GST fusion proteins separated by SDS-PAGE and transferred to nitrocellulose; membranes incubated with MBP-14-3-3 fusion protein (or MBP as control); detection with anti-MBP. Conditions: both partners purified.
In experiment [2] the target is T1, GST-CFL2 (amino acids 1-55). Put plainly: blot overlay.
Experiment [3] addresses T2, GST-CFL2 (amino acids 1-166), …. Put plainly: blot overlay.
In experiment [4] the target is T3, MBP-14-3-3 (amino acids 1-247), full …. As to the kind of experiment: pull-down; same samples as a4: eluted GST-Hsp20 proteins (PKA-treated or not) bound to MBP-14-3-3 on amylose resin, in the presence of myc-CFL2 HEK 293 lysate; blot with phospho-Hsp20 or GST antibody. Conditions: both partners purified.

Regarding B1, the binding result in experiment [1] is recorded as “binds”. As to B2, the binding result in experiment [2] and in experiment [3] was “binds” each time.

B3: the binding result in experiment [4] was “binds”. As to B4, in experiment [4], the binding result is “binds”. As for B5, the binding result in experiment [3] was “binds”.
